The DeepSol protein solubility set

assay: soluble on expression in E. coli; label from the status in PepcDB or PDB records

Row | Sequence | soluble on expression in E. coli
1 | MGSDKIHHHHHHMTAISREVPRTPHDLSLYLTRLGLTAPDLGSAMQPVLDVLVSRTAAVGAGYFQLRDSTLTYQARAASGDLPQGPLMEALLAHGLPPELPLVQALEAADGALFFEDTRLDPQAAGFADLGVLALTAAPVHNQSGRLVGALLSHVFAPHPWSAEERQLVSTVTGLLTLLAARLDAEERERAAHESALRALGLMLEARDTETQGHTDRVTALALRLGRALGLSDTELRDLRWGAYLHDIGKIAIPDAILHCPGTLDLAAWARMQEHVNEGTRLAAQLPFLPRAALDVIACHHECWDGSGYPRGLAGEAIPRHARIFAACDVYDALVSARPYKRAWTHAEATAYLEQRSGHQFDPVIVRALLRVLEDEDSAAANA | not soluble
2 | MAHHHHHHMCAWNSAIHAYPTAIAPMLVRRPCHAAMNAYTAVASCATALRLSRSHLHAHMLLLLVLTRQRCNLFTLRSDTFLKAVVQMLFSPALLSTLRSAAGVSARSAPPALRQRVAAIA | not soluble
3 | MDATMVFKRLLGSLGVGAPTVDTVLDPAPVLPGGTLTGQVHLEGGQTDFDIEHITLELVARVEAEHEDGEDEGVVVFDRFTVGGGFRLGAEEPRSVPFRVTLPWETPITELYGQPLGIVLGVRTELAVADAKDKGDLDQLTVTALPVQEAVLEAFGQLGFGFGSADLEYGHIGGTGQQLPFYQEIELVPAPQYADRLNEIELTFLAGPGGLEVVLEADKRGGLLSSGHDAVTRFSVGHHDARDWAAEVEGWVRQLVEHHTTYGAPGTHGHSTPYAGHGHHDPHGNGGRHHDDHRSGPGVGTAVAAGAAGLAVGVVGGMVAAEVVDEVGDFFEGDDEEEDEG | not soluble
4 | MGSDKIHHHHHHMTQSDFFSLDGISKRFGVVQALDNVSIAFRPGEVLALVGENGAGKSTMMRILEGVSGPDTGTVRHGSTPIVFGEPRDSHRAGIRVIHQEPEIVPNLTVAENIFVGELPRLAGVLLDWRKLEEQTDRVLATFGMQQDMRPRQLCGTLGPAQRQMIEIMRAIRAGGRLIAFDEPTSSLTDDEARRLFSVVRRLREKGTSIIYISHRLNEIIDLADRIVVLRDGRLVDDSPAAGASEQTIAKLMVGRNIDDLFTRETWRSGEQLLDVAGLTTDRVNDVSLRVRRGEVLGIAGLMGAGRSELAKAIVGYDRRIAGTIAMNGVPVLPNSPHAAIVAGIGFAPEDRKHEALLLFRSILDNAALCVPDKTSSFGFFNRRKAMEIVSPLAAKMSIKAPNLDEQVSKLSGGNQQKVVLARWLARQPMLLILDEPTRGIDIGAKAEIYRLIDELAASGIGIILISSEMPELIGLADRVLVMAGGRITAELARPDIDEATILKHAMPQSASSPGDYIQ | not soluble
5 | MWNFTLISKVKISREVTMIASKFGIGQQVRHSLLGYLGVVVDIDPVYSLSEPSPDELAVNDELRAAPWYHVVMEDDNGLPVHTYLAEAQLSSELQDEHPEQPSMDELAQTIRKQLQAPRLRNLEHHHHHH | not soluble
6 | AIAREWKSQDAWKQHSLRLCFGVWPGTEFLHRPRAVHRRSGVVCSQMQTEDSHPETPQVPKESLQEEKDSSPATDASFIQSQDGKTVFLDRRTERRIQRGFVLTERGPRSIWKPAGTSSQRNERVPRRAAARGGAGPPDTTPQLATVRVLVLGANHVAQRLAELLSSHSRVCGCYFVSETTDEAAIESMKKYAYALPLRSALNDDEVVRVAEWVLADYVFLVPTGETHDDGVSLKDKERLERTLAQNRVTFMDENLTGLLLENPSLIDALFRARDSLEA | soluble
